Results as given in patent US20240044881A1.

Legend:
[1] = molecular target: Type I ClyA-CS nanopore (Salmonella typhi) (UniProt Q8Z727)
[2] = molecular target: Type II ClyA-CS nanopore (Salmonella typhi) (UniProt Q8Z727)
[3] = molecular target: Type I ClyA-CS nanopore (Salmonella typhi) (UniProt Q8Z727); experiment: single-channel current recording, planar lipid bilayer, -35 mV
[4] = molecular target: Type II ClyA-CS nanopore (Salmonella typhi) (UniProt Q8Z727); experiment: as above
[5] = molecular target: Type III ClyA-CS nanopore (Salmonella typhi) (UniProt Q8Z727); experiment: as above
[6] = molecular target: Type I ClyA-CS nanopore (Salmonella typhi) (UniProt Q8Z727); experiment: single-channel current recording, planar lipid bilayer, -150 mV
[7] = molecular target: Type II ClyA-CS nanopore (Salmonella typhi) (UniProt Q8Z727); experiment: as above

human thrombin (from UniProt P00734 328-622) (enzyme)
HT Dwell time at -150 mV [1]: 1 ms
HT Dwell time at -150 mV [2]: 235 ms
HT Level 1 at -35 mV, IRES % (residual current) [3]: 56%
HT Level 2 at -35 mV, IRES % (residual current) [3]: 23%
HT Occupancy of L2 at -35 mV, % [3]: 30%
occupancy of the more superficial binding site (level 1) at -35 mV, % [3]: 70%
HT Level 1 at -35 mV, IRES % (residual current) [4]: 68%
HT Level 2 at -35 mV, IRES % (residual current) [4]: 31%
HT Level 2 at -35 mV, IRES % (residual current) [5]: 32%
HT Occupancy of L2 at -35 mV, % [5]: 100%
duration of HT blockades at -35 mV [5]: 55 ms
HT Level 2 (-150 mV), IRES, % (residual current) [6]: 23%
HT Occupancy of L2 at -150 mV, % [6]: 100%
HT Level 2 (-150 mV), IRES, % (residual current) [7]: 31%
HT Occupancy of L2 at -150 mV, % [7]: 100%
